Assay results as given in patent US20100280227A1 (Genentech, published 2010).
Numbering of substitutions follows the chain as printed. Where “and” joins values, the source holds several entries; their conditions need not be identical. Equal values may be shown once. Read-outs that look alike come from different tables or passages of the source. One block for each binder: values may come before it.

Experiments:
[1] = biological target: T1, variant human BR3-Fc fusion; experiment: SPR, vBR3-Fc on chip;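 note: Anti-BR3 antibodies passed over chip-bound BR3-Fc in PBS with 0.05% polysorbate 20, on and off rates fitted together globally to a 1:1 binding model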
T1 construct: produced in CHO cells; also called vBR3-Fc; vhBR3-Fc
Protocol: After coupling, unoccupied sites on the chip were blocked by injecting 20 μl of 1M ethanolamine, pH 8.5. The running buffer was PBS containing 0.05% polysorbate 20. […] The binding surface was regenerated by injecting 20-30 μl of 10 mM glycine.HCl (pH 1.5). […] Data were analyzed using a 1:1 binding model using global fitting. The association and dissociation rate constants were fitted simultaneously (BIAevaluation software).
A high flow rate was used in order to minimize mass transport effects.

[2] = biological target: T2, human BR3 extracellular domain (human, UniProt Q96RJ3 1-61); experiment: SPR, BR3 ECD on chip;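 note: Anti-BR3 antibodies passed over the chip at high flow in PBS with 0.05% polysorbate 20, on and off rates fitted together globally to a 1:1 binding model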
T2 construct: biotinylated where used as tracer; also called hBR3-ECD; BR3-ECD

[3] = biological target: T2, human BR3 extracellular domain; experiment: SPR with Fab
Protocol: (§1) Each sample was analysed with 2-minute association and 20-minute dissociation. After each injection the chip was regenerated using 10 mM Glycine pH 1.5. Binding response was corrected by subtracting the RU from a blank flow cell. A 1:1 Languir model of simultaneous fitting of kₒₙ and koff was used for kinetics analysis.

[4] = biological target: T1, variant human BR3-Fc fusion; experiment: BIAcore, Fab over immobilised target
Protocol: as §1

[5] = biological target: T2, human BR3 extracellular domain; experiment: BIAcore, Fab over immobilised target
Protocol: as §1

MiniBR3 peptide = biological target: T3, MiniBR3 peptide (human, C-terminal amide; disulfide between cysteines 24 and 35 and a second disulfide (BR3 numbering)); experiment: phage competition ELISA
T3 construct: synthetic

[6] = biological target: T2, human BR3 extracellular domain; experiment: phage competition ELISA
[7] = biological target: T4, mouse BR3 extracellular domain (mouse, UniProt Q9D8D0 1-64); experiment: phage competition ELISA
T4 construct: also called mBR3-ECD; mBR-ECD
T4 sequence: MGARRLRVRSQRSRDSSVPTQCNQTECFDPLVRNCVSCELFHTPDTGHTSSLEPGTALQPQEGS

[8] = biological target: T2, human BR3 extracellular domain; experiment: single spot phage competition ELISA; OD with competitor / OD without competitor; criterion met by the picked clones
[9] = biological target: T4, mouse BR3 extracellular domain; experiment: as above
[10] = biological target: T2, human BR3 extracellular domain; experiment: SPR BIAcore-2000, ECD on chip, Fab injected
Description: (§2) Biacore measurement Surface plasmon resonance assays on a BIAcore™-2000 were used to determine the affinity of anti-BR3 Fabs. […] For kinetics analysis, 1:1 Languir model of simultaneous fitting of kₒₙ and koff was used.

[11] = biological target: T4, mouse BR3 extracellular domain; experiment: SPR BIAcore-2000, ECD on chip, Fab injected
Description: as §2

[12] = biological target: T2, human BR3 extracellular domain; experiment: SPR BIAcore-2000, hBR3-ECD on chip, Fab injected
Description: as §2

[13] = biological target: T4, mouse BR3 extracellular domain; experiment: SPR BIAcore-2000, mBR3-ECD on chip, Fab injected
Description: as §2

[14] = biological target: T2, human BR3 extracellular domain; experiment: F(ab)'2 phage solution binding competition ELISA
Protocol: (§3) Third, a competition ELISA was performed. […] The wells were blocked by adding 65 ul 1% BSA for 30 minutes followed by 40 ul 1% Tween20 for another 30 minutes. The wells were washed with PBS—0.05% Tween20 5 times. […] The wells of the second plate were washed with PBS—0.5% Tween20 at least three times. 75 ul of HRP-conjugated anti-M13 antibody (1/5000 dilution with ELISA buffer) per well was added and incubated at room temperature for 30 minutes. The wells were washed again with PBS—0.05% Tween20 at least five times.

[15] = biological target: T4, mouse BR3 extracellular domain; experiment: F(ab)'2 phage solution binding competition ELISA
Protocol: as §3

mouse BR3-Fc [16] = biological target: T5, mouse BR3-Fc (mouse); experiment: F(ab)'2 phage solution binding competition ELISA
T5 construct: (BR3 ECD fused to a murine Fc); also called mBR3-Fc; murine BR3-Fc
T5 chain: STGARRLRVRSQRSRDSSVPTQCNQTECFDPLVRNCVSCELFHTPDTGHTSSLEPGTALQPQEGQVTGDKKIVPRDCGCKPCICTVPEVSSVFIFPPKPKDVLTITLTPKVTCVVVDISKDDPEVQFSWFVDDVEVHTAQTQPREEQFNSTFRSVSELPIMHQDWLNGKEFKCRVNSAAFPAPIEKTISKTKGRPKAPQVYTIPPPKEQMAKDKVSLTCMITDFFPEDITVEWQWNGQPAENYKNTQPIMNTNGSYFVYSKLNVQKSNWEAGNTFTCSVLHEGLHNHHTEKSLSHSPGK
Protocol: as §3

mouse BR3-Fc [17] = biological target: T5, mouse BR3-Fc; experiment: BAFF blocking ELISA: F(ab)'2 phage added to coated mBR3-Fc after mBAFF-Flag
Protocol: The wells were blocked by adding 65 ul 1% BSA for 30 minutes followed by 40 ul 1% Tween20 for another 30 minutes. Next, the wells were washed five times with PBS—0.05% Tween20. […] The wells were washed five times with PBS—0.05% Tween20.
Binding was quantified by adding 75 ul/well of horse radish peroxidase (HRP)-conjugated anti-M13 antibody in PBS plus 0.5% BSA and 0.05% Tween20 at room temperature for 30 minutes (Sidhu et al., supra). The wells were washed with PBS—0.05% Tween20 at least five times.

T3 sequence (peptide, as listed by the source): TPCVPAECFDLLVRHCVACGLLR

Kd [1]: 1.38 nM and 1.62 nM
koff [1]: 0.000902 s⁻¹ and 0.000808 s⁻¹
kon [1]: 660000 M⁻¹ s⁻¹ and 500000 M⁻¹ s⁻¹
Kd [2]: 0.46 nM and 0.652 nM
koff [2]: 0.000808 s⁻¹ and 0.000867 s⁻¹
kon [2]: 1.76e+06 M⁻¹ s⁻¹ and 1.33e+06 M⁻¹ s⁻¹
fold improved affinity relative to the chimeric 11G9 Fab [3]: > 10 fold
Kd [4]: 5.4 nM
Kd [5]: 1.5 nM
B1: Hu11G9-46 Fab (Fab, V domains shown)
VH: EVQLVESGGGLVQPGGSLRLSCAASGDSITSGYWNWVRQAPGKGLEWVGYISYSGSTYYNPSLKSRFTISRDTSKNTFYLQMNSLRAEDTAVYYCAGLNDLYLYFDVWGQGTLVTVSS
VL: DIQMTQSPSSLSASVGDRVTITCRSSQSLVHSNGNTYLHWYQQKPGKAPKLLIYKVSNRFSGVPSRFSGSGSGTDFTLTISSLQPEDFATYYCSQSTHVPPFTFGQGTKVEIKR
notes: Fab

Kd ([1]; 220 RU BR3-Fc immobilized): 0.95 nM
koff ([1]; 220 RU BR3-Fc immobilized): 0.00068 s⁻¹
kon ([1]; 220 RU BR3-Fc immobilized): 720000 M⁻¹ s⁻¹
Kd ([1]; 380 RU BR3-Fc immobilized): 0.61 nM
koff ([1]; 380 RU BR3-Fc immobilized): 0.000392 s⁻¹
kon ([1]; 380 RU BR3-Fc immobilized): 640000 M⁻¹ s⁻¹
Kd [2]: 0.13 nM and 0.17 nM
koff [2]: 0.000137 s⁻¹ and 0.000163 s⁻¹
kon [2]: 1.08e+06 M⁻¹ s⁻¹ and 950000 M⁻¹ s⁻¹
fold higher affinity than the chimeric 9.1 Fab [3]: ~2 fold
Kd [4]: 0.78 nM
Kd [5]: 0.15 nM
B2: Hu9.1-70 Fab (Fab, V domains shown)
VH: EVQLVESGGGLVQPGGSLRLSCAASDSPRSGYYISWVRQAPGKGLEWVGFIRDKANGYTTEYNPSVKGRFTISADTSKNTAYLQMNSLRAEDTAVYYCAQVRRALDYWGQGTLVTVSS
VL: DIQMTQSPSSLSASVGDRVTITCKSSQSLLYSSNQNNYLAWYQQKPGKAPKLLIYWASIRDSGVPSRFSGSGSGTDFTLTISSLQPEDFATYYCQQYYTYPYTFGQGTKVEIKR
notes: Fab

Kd [1]: 6.4 nM
koff [1]: 0.00186 s⁻¹
kon [1]: 290000 M⁻¹ s⁻¹
Kd [2]: 0.14 nM
koff [2]: 0.000294 s⁻¹
kon [2]: 2.02e+06 M⁻¹ s⁻¹
fold higher affinity than the chimeric 9.1 Fab [3]: ~2 fold
B3: Hu9.1-RF Fab (Fab, V domains shown)
VH: B2 VH with D26G, S27F, P28T, R29V, S30T, G31A, I34M, A74R, A81F
VL: B2 VL with I59T, D61E

IC50 (MiniBR3 peptide): 5.4 nM
IC50 [6]: 9.4 nM
IC50 [7]: 9.5 nM
OD450nm reduction (%) [8]: < 50%
OD450nm reduction (%) [9]: < 50%
Kd [10]: 7.9 nM
koff [10]: 0.000293 s⁻¹
kon [10]: 37300 M⁻¹ s⁻¹
Kd [11]: 2.5 nM
koff [11]: 0.000195 s⁻¹
kon [11]: 77100 M⁻¹ s⁻¹
Kd [12]: 7.87 nM
koff [12]: 0.000293 s⁻¹
kon [12]: 37300 M⁻¹ s⁻¹
Kd [13]: 2.5 nM
koff [13]: 0.000195 s⁻¹
kon [13]: 77100 M⁻¹ s⁻¹
B4: V3-1 Fab (Fab, V domains shown)
VH: EVQLVESGGGLVQPGGSLRLSCAASGFTISSNSIHWVRQAPGKGLEWVAWITPSDGNTDYADSVKGRFTISADTSKNTAYLQMNSLRAEDTAVYYCARRVCYNRLGVCAGGMDYWGQGTLVTVSS
VL: DIQMTQSPSSLSASVGDRVTITCRASQDVSTAVAWYQQKPGKAPKLLIYSASFLYSGVPSRFSGSGSGTDFTLTISSLQPEDFATYYCQQSRITPPTFGQGTKVEIKR
notes: soluble Fab in SPR

IC50 [14]: 5000 nM
binding result [15]: no binding
IC50 (mouse BR3-Fc [16]): 37 nM
Blocking to % (phage bound in the presence of BAFF) (mouse BR3-Fc [17]): 90%
B5: 89 (Fab, V domains shown)
VH: EVQLVESGGGLVQPGGSLRLSCAASGFTITGYGIHWVRQAPGKGLEWVAGITPANGYTDYADSVKGRFTISADTSKNTAYLQMNSLRAEDTAVYYCAKSFPFHYNFDYWGQGTLVTVSS
VL: B4 VL with R92Y, I93T
notes: also called V89; clone 89

binding result [14]: binds
binding result [15]: no binding
IC50 (mouse BR3-Fc [16]): 133 nM
Blocking to % (phage bound in the presence of BAFF) (mouse BR3-Fc [17]): 90%
B6: 24 (Fab, V domains shown)
VH: EVQLVESGGGLVQPGGSLRLSCAASGFTISGSSIHWVRQAPGKGLEWVGTIYPYGGNTYYADSVKGRFTISADTSKNTAYLQMNSLRAEDTAVYYCARRAFVMSGMDYWGQGTLVTVSS
VL: B4 VL with R92Y, I93T
notes: also called V24; clone 24

IC50 (MiniBR3 peptide): 473 nM
OD450nm reduction (%) [8]: < 50%
OD450nm reduction (%) [9]: < 50%
Kd [10]: 1200 nM
koff [10]: 0.0028 s⁻¹
kon [10]: 2300 M⁻¹ s⁻¹
Kd [11]: 40 nM
B7: V3-13 Fab (Fab, V domains shown)
VH: B4 VH with S31R, N32R, N103S, R104S, L105V, G106R, V107G, G111A
VL: B4 VL with S50G, F53N, R92H, I93A, T94S
notes: soluble Fab in SPR

binding result [14]: binds
binding result [15]: no binding
IC50 (mouse BR3-Fc [16]): 200 nM
Blocking to % (phage bound in the presence of BAFF) (mouse BR3-Fc [17]): 65%
B8: 96 (Fab, V domains shown)
VH: EVQLVESGGGLVQPGGSLRLSCAASGFTINSSAIHWVRQAPGKGLEWVGYITPASGYTDYADSVKGRFTISADTSKNTAYLQMNSLRAEDTAVYYCAKGFHWYRGFFDYWGQGTLVTVSS
VL: B4 VL with R92Y, I93T
notes: also called V96; clone 96

IC50 (MiniBR3 peptide): 11 nM
OD450nm reduction (%) [8]: < 50%
OD450nm reduction (%) [9]: < 50%
Kd [10]: 60.1 nM
koff [10]: 0.00113 s⁻¹
kon [10]: 21800 M⁻¹ s⁻¹
Kd [11]: 20.4 nM
koff [11]: 0.000888 s⁻¹
kon [11]: 43600 M⁻¹ s⁻¹
B9: V3-11 Fab (Fab, V domains shown)
VH: B4 VH with R104N, G111A
VL: B4 VL with S91T, R92S, I93T, T94S
notes: soluble Fab in SPR

IC50 (MiniBR3 peptide): 35 nM
OD450nm reduction (%) [8]: < 50%
OD450nm reduction (%) [9]: < 50%
Kd [10]: 72 nM
koff [10]: 0.00091 s⁻¹
kon [10]: 13000 M⁻¹ s⁻¹
Kd [11]: 36 nM
koff [11]: 0.0013 s⁻¹
kon [11]: 36000 M⁻¹ s⁻¹
B10: V3-12 Fab (Fab, V domains shown)
VH: B4 VH with N103D, L105A, G106R, G111A
VL: B4 VL with R92Y, I93S
notes: soluble Fab in SPR
